Results on 41 variants are retold here after the RNAGym collection of RNA variant scans (doi:10.7554/elife.90254).

B1: OR4K15 (parent)
chain: GUUAACGGUCAUAGGCCAUGGAAACUAGGAGCACCAUUUCGCUGCCAGUGAAGAAAUGAACAAAGAAAAUCUGGGCCAGGCAGGCAUCAAAAGAAAUAGUCUUGCGCUCAACCAGAAAGUCUGUAAUCAUUUUAAGGGUA

Variants of B1 are the subject of this data set. As to the kind of experiment: self-cleavage, relative activity (ratio to wild type); higher = more cleavage; in vitro, sequencing; the parent is a self-cleaving ribozyme.
In the case of GUUAACGGUCAUAGGCCAUGGAAACUAGGAGCACCAUUUCGCUGCCAGUGAAGAAAUGAACAAAGAAAAUCUGGGCCAGGCAGGCAUCAAAAGAAAUAGUCUUGCGCCCAACCAGAAAGUCUGUAAUCAUUUAAAGGGUA [U108C U133A], the self-cleavage stood at 0.01.
Under GUUAACGGUCAUAGGCCAUGGAAACUAGGAGCACCAUUUCGCUGCCAGUGAAGAAAUGAACAAAGAAAAUCUGGGCCAGGCAGGCAUCAAAAGAAAUAGUCUUGCGCCCAACCAGAAAGUCUGUAAUCAUUUCAAGGGUA [U108C U133C] stands 0.02.
Under GUUAACGGUCAUAGGCCAUGGAAACUAGGAGCACCAUUUCGCUGCCAGUGAAGAAAUGAACAAAGAAAAUCUGGGCCAGGCAGGCAUCAAAAGAAAUAGUCUUGCGCCCAACCAGAAAGUCCGUAAUCAUUUUAAGGGUA [U108C U122C] stands 0.01; under GUUAACGGUCAUAGGCCAUGGAAACUAGGAGCACCAUUUCGCUGCCAGUGAAGAAAUGAACAAAGAAAAUCUGGGCCAGGCAGGCAUCAAAAGAAAUAGUCUUGCGCCCAACCAGAAAGUCAGUAAUCAUUUUAAGGGUA [U108C U122A], 0.01.
Consider GUUAACGGUCAUAGGCCAUGGAAACUAGGAGCACCAUUUCGCUGCCAGUGAAGAAAUGAACAAAGAAAAUCUGGGCCAGGCAGGCAUCAAAAGAAAUAGUCUUGCGCCCAACCAGAAAGUCGGUAAUCAUUUUAAGGGUA [U108C U122G], for which the self-cleavage was 0.
As to GUUAACGGUCAUAGGCCAUGGAAACUAGGAGCACCAUUUCGCUGCCAGUGAAGAAAUGAACAAAGAAAAUCUGGGCCAGGCAGGCAUCAAAAGAAAUAGUCUUGCGCCCAACCAGAAAGUCUGUAAUCAAUUUAAGGGUA [U108C U130A], the self-cleavage worked out at 0.
On to GUUAACGGUCAUAGGCCAUGGAAACUAGGAGCACCAUUUCGCUGCCAGUGAAGAAAUGAACAAAGAAAAUCUGGGCCAGGCAGGCAUCAAAAGAAAUAGUCUUGCGCCUAACCAGAAAGUCUGUAAUCAUUUUAAGGGUA [U108C C109U], for which the self-cleavage amounted to 0.01.
On to GUUAACGGUCAUAGGCCAUGGAAACUAGGAGCACCAUUUCGCUGCCAGUGAAGAAAUGAACAAAGAAAAUCUGGGCCAGGCAGGCAUCAAAAGAAAUAGUCUUGCGCUUAACCAGAAAGUCUGUGAUCAUUUUAAGGGUA [C109U A125G], for which the self-cleavage is 0.17.
Under GUUAACGGUCAUAGGCCAUGGAAACUAGGAGCACCAUUUCGCUGCCAGUGAAGAAAUGAACAAAGAAAAUCUGGGCCAGGCAGGCAUCAAAAGAAAUAGUCUUGCGCCCAACCAGAAAGUCUGUAAUCAUCUUAAGGGUA [U108C U131C] stands 0.01.
GUUAACGGUCAUAGGCCAUGGAAACUAGGAGCACCAUUUCGCUGCCAGUGAAGAAAUGAACAAAGAAAAUCUGGGCCAGGCAGGCAUCAAAAGAAAUAGUCUUGCGCGCAACCAGAAAGUCUGUAGUCAUUUUAAGGGUA [U108G A126G]: the self-cleavage was determined as 0.
The same measure for GUUAACGGUCAUAGGCCAUGGAAACUAGGAGCACCAUUUCGCUGCCAGUGAAGAAAUGAACAAAGAAAAUCUGGGCCAGGCAGGCAUCAAAAGAAAUAGUCUUGCGCCCAACCAGAAAGUCUGUAAUCAUUUUCAGGGUA [U108C A134C]: 0.01; for GUUAACGGUCAUAGGCCAUGGAAACUAGGAGCACCAUUUCGCUGCCAGUGAAGAAAUGAACAAAGAAAAUCUGGGCCAGGCAGGCAUCAAAAGAAAUAGUCUUGCGCUUAACCGGAAAGUCUGUAAUCAUUUUAAGGGUA [C109U A114G]: 0.2.
Regarding GUUAACGGUCAUAGGCCAUGGAAACUAGGAGCACCAUUUCGCUGCCAGUGAAGAAAUGAACAAAGAAAAUCUGGGCCAGGCAGGCAUCAAAAGAAAUAGUCUUGCGCCCAACCAGAAAGUCUGUAAUCAUUUUAAGAGUA [U108C G137A], the self-cleavage worked out at 0.01.
The same measure for GUUAACGGUCAUAGGCCAUGGAAACUAGGAGCACCAUUUCGCUGCCAGUGAAGAAAUGAACAAAGAAAAUCUGGGCCAGGCAGGCAUCAAAAGAAAUAGUCUUGCGCGCAACCAGAAAGUCUGUAAUCAUUUUAAGGGUA [U108G]: 0.02; for GUUAACGGUCAUAGGCCAUGGAAACUAGGAGCACCAUUUCGCUGCCAGUGAAGAAAUGAACAAAGAAAAUCUGGGCCAGGCAGGCAUCAAAAGAAAUAGUCUUGCGCGCAACCAGAAAGUCUGUAAUCAUUUCAAGGGUA [U108G U133C]: 0.02.
Under GUUAACGGUCAUAGGCCAUGGAAACUAGGAGCACCAUUUCGCUGCCAGUGAAGAAAUGAACAAAGAAAAUCUGGGCCAGGCAGGCAUCAAAAGAAAUAGUCUUGCGCUAAACCAGAAAGCCUGUAAUCAUUUUAAGGGUA [C109A U120C] stands 0.36; under GUUAACGGUCAUAGGCCAUGGAAACUAGGAGCACCAUUUCGCUGCCAGUGAAGAAAUGAACAAAGAAAAUCUGGGCCAGGCAGGCAUCAAAAGAAAUAGUCUUGCGCCCAACCAGAAAGUCUGUACUCAUUUUAAGGGUA [U108C A126C], 0.01; under GUUAACGGUCAUAGGCCAUGGAAACUAGGAGCACCAUUUCGCUGCCAGUGAAGAAAUGAACAAAGAAAAUCUGGGCCAGGCAGGCAUCAAAAGAAAUAGUCUUGCGCCCAACCAGAUAGUCUGUAAUCAUUUUAAGGGUA [U108C A117U], 0.01.
For GUUAACGGUCAUAGGCCAUGGAAACUAGGAGCACCAUUUCGCUGCCAGUGAAGAAAUGAACAAAGAAAAUCUGGGCCAGGCAGGCAUCAAAAGAAAUAGUCUUGCGCCCAACCAGAAAGUCUGUAAUUAUUUUAAGGGUA [U108C C128U], the self-cleavage is 0.04.
Under GUUAACGGUCAUAGGCCAUGGAAACUAGGAGCACCAUUUCGCUGCCAGUGAAGAAAUGAACAAAGAAAAUCUGGGCCAGGCAGGCAUCAAAAGAAAUAGUCUUGCGCCCAAUCAGAAAGUCUGUAAUCAUUUUAAGGGUA [U108C C112U] stands 0.01; under GUUAACGGUCAUAGGCCAUGGAAACUAGGAGCACCAUUUCGCUGCCAGUGAAGAAAUGAACAAAGAAAAUCUGGGCCAGGCAGGCAUCAAAAGAAAUAGUCUUGCGCCCAACCAGAAAGUCUGUAAUCAUUUUAGGGGUA [U108C A135G], 0.01; under GUUAACGGUCAUAGGCCAUGGAAACUAGGAGCACCAUUUCGCUGCCAGUGAAGAAAUGAACAAAGAAAAUCUGGGCCAGGCAGGCAUCAAAAGAAAUAGUCUUGCGCCCAACCAGAAAGUCUGUUAUCAUUUUAAGGGUA [U108C A125U], 0.01.
Take GUUAACGGUCAUAGGCCAUGGAAACUAGGAGCACCAUUUCGCUGCCAGUGAAGAAAUGAACAAAGAAAAUCUGGGCCAGGCAGGCAUCAAAAGAAAUAGUCUUGCGCUGAACCAGAAAGUCUGUAAUCAUUUUAAGGGUA [C109G]: the self-cleavage worked out at 0.02.
On to GUUAACGGUCAUAGGCCAUGGAAACUAGGAGCACCAUUUCGCUGCCAGUGAAGAAAUGAACAAAGAAAAUCUGGGCCAGGCAGGCAUCAAAAGAAAUAGUCUUGCGCUAAACCAGAAAGUCUGUAAUCAUUUUAAGGGUA [C109A], for which the self-cleavage was determined as 0.38.
In the case of GUUAACGGUCAUAGGCCAUGGAAACUAGGAGCACCAUUUCGCUGCCAGUGAAGAAAUGAACAAAGAAAAUCUGGGCCAGGCAGGCAUCAAAAGAAAUAGUCUUGCGCUUAACCAGAAAGUCUGUAAUCAUUUUAAGGGUA [C109U], the self-cleavage came out at 0.49.
The same measure for GUUAACGGUCAUAGGCCAUGGAAACUAGGAGCACCAUUUCGCUGCCAGUGAAGAAAUGAACAAAGAAAAUCUGGGCCAGGCAGGCAUCAAAAGAAAUAGUCUUGCGCGCAACCAGAAGGUCUGUAAUCAUUUUAAGGGUA [U108G A118G]: 0.01.
Under GUUAACGGUCAUAGGCCAUGGAAACUAGGAGCACCAUUUCGCUGCCAGUGAAGAAAUGAACAAAGAAAAUCUGGGCCAGGCAGGCAUCAAAAGAAAUAGUCUUGCGCUAAACCAGAAAGUCUGUAAUCAUUUUAAGGGUG [C109A A140G] stands 0.47; under GUUAACGGUCAUAGGCCAUGGAAACUAGGAGCACCAUUUCGCUGCCAGUGAAGAAAUGAACAAAGAAAAUCUGGGCCAGGCAGGCAUCAAAAGAAAUAGUCUUGCGCCCAACCAGAAUGUCUGUAAUCAUUUUAAGGGUA [U108C A118U], 0.
The same measure for GUUAACGGUCAUAGGCCAUGGAAACUAGGAGCACCAUUUCGCUGCCAGUGAAGAAAUGAACAAAGAAAAUCUGGGCCAGGCAGGCAUCAAAAGAAAUAGUCUUGCGCCCAACCAGAAGGUCUGUAAUCAUUUUAAGGGUA [U108C A118G]: 0.01; for GUUAACGGUCAUAGGCCAUGGAAACUAGGAGCACCAUUUCGCUGCCAGUGAAGAAAUGAACAAAGAAAAUCUGGGCCAGGCAGGCAUCAAAAGAAAUAGUCUUGCGCCCAACCAGAAAGUCUGUAAUCGUUUUAAGGGUA [U108C A129G]: 0.01; for GUUAACGGUCAUAGGCCAUGGAAACUAGGAGCACCAUUUCGCUGCCAGUGAAGAAAUGAACAAAGAAAAUCUGGGCCAGGCAGGCAUCAAAAGAAAUAGUCUUGCGCCCAACCAGAAAGUCUGUAAUCAUUAUAAGGGUA [U108C U132A]: 0.02.
With GUUAACGGUCAUAGGCCAUGGAAACUAGGAGCACCAUUUCGCUGCCAGUGAAGAAAUGAACAAAGAAAAUCUGGGCCAGGCAGGCAUCAAAAGAAAUAGUCUUGCGCCCAACCAGAAAGUCUGUAAUCAUUCUAAGGGUA [U108C U132C], the self-cleavage came out at 0.01.
Consider GUUAACGGUCAUAGGCCAUGGAAACUAGGAGCACCAUUUCGCUGCCAGUGAAGAAAUGAACAAAGAAAAUCUGGGCCAGGCAGGCAUCAAAAGAAAUAGUCUUGCGCUAAACCAGAACGUCUGUAAUCAUUUUAAGGGUA [C109A A118C], for which the self-cleavage came to 0.14.
For GUUAACGGUCAUAGGCCAUGGAAACUAGGAGCACCAUUUCGCUGCCAGUGAAGAAAUGAACAAAGAAAAUCUGGGCCAGGCAGGCAUCAAAAGAAAUAGUCUUGCGCCCAACCAGAAAGUCUGUAAUCAUUUUAAGGGAA [U108C U139A], the self-cleavage was 0.04.
With GUUAACGGUCAUAGGCCAUGGAAACUAGGAGCACCAUUUCGCUGCCAGUGAAGAAAUGAACAAAGAAAAUCUGGGCCAGGCAGGCAUCAAAAGAAAUAGUCUUGCGCGCAACCAGAAAGUCCGUAAUCAUUUUAAGGGUA [U108G U122C], the self-cleavage was 0.02.
For GUUAACGGUCAUAGGCCAUGGAAACUAGGAGCACCAUUUCGCUGCCAGUGAAGAAAUGAACAAAGAAAAUCUGGGCCAGGCAGGCAUCAAAAGAAAUAGUCUUGCGCCCAACCAGAAAGUUUGUAAUCAUUUUAAGGGUA [U108C C121U], the self-cleavage was 0.02.
Under GUUAACGGUCAUAGGCCAUGGAAACUAGGAGCACCAUUUCGCUGCCAGUGAAGAAAUGAACAAAGAAAAUCUGGGCCAGGCAGGCAUCAAAAGAAAUAGUCUUGCGCCCGACCAGAAAGUCUGUAAUCAUUUUAAGGGUA [U108C A110G] stands 0.01; under GUUAACGGUCAUAGGCCAUGGAAACUAGGAGCACCAUUUCGCUGCCAGUGAAGAAAUGAACAAAGAAAAUCUGGGCCAGGCAGGCAUCAAAAGAAAUAGUCUUGCGCUUAACCAGAGAGUCUGUAAUCAUUUUAAGGGUA [C109U A117G], 0.44; under GUUAACGGUCAUAGGCCAUGGAAACUAGGAGCACCAUUUCGCUGCCAGUGAAGAAAUGAACAAAGAAAAUCUGGGCCAGGCAGGCAUCAAAAGAAAUAGUCUUGCGCGCAACCAGGAAGUCUGUAAUCAUUUUAAGGGUA [U108G A116G], 0.
Under GUUAACGGUCAUAGGCCAUGGAAACUAGGAGCACCAUUUCGCUGCCAGUGAAGAAAUGAACAAAGAAAAUCUGGGCCAGGCAGGCAUCAAAAGAAAUAGUCUUGCGCCCAACCAGAAAGUCUGAAAUCAUUUUAAGGGUA [U108C U124A] stands 0.01; under GUUAACGGUCAUAGGCCAUGGAAACUAGGAGCACCAUUUCGCUGCCAGUGAAGAAAUGAACAAAGAAAAUCUGGGCCAGGCAGGCAUCAAAAGAAAUAGUCUUGCGCCCAACCAGAAAGUCUGCAAUCAUUUUAAGGGUA [U108C U124C], 0.
